The values below come from US20050064507A1, “Determining kinase specificity” (priority 2003, published 2005).

T1 sequence (Q05655 whole entry): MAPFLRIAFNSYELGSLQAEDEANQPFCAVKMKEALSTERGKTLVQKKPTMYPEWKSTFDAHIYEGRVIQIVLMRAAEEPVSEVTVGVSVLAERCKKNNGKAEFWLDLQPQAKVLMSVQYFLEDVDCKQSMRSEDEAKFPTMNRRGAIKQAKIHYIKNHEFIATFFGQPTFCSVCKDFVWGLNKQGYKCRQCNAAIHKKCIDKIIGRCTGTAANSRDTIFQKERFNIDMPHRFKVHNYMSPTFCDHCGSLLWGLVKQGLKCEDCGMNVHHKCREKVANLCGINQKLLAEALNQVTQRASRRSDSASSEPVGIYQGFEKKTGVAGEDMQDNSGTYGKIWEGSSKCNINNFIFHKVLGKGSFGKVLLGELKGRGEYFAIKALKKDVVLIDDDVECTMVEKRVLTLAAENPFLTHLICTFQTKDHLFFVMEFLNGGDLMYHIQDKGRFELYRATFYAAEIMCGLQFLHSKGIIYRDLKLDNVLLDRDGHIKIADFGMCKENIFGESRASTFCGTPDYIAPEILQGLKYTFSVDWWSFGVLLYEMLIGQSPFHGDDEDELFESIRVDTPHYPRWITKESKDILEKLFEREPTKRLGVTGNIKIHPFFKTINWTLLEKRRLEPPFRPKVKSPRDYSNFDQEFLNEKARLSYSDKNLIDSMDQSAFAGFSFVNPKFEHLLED

The first test has as its target T1, PKC-delta (Homo sapiens, UniProt Q05655).
T1 construct: purchased Calbiochem
Description: In vitro kinase assay: peptide phosphorylation by PKC-delta. The conditions noted are these: PKC-delta. The format is biochemical. From the text: One approach to validating a substrate identification method can involve, for example, comparison of substrate sites predicted by the method with in vitro phosphorylation results obtained using the selected kinase and peptides of known sequences. Such a systematic validation has been performed for the methods described herein. For example, a panel of seventy five peptides was synthesized, the phosphorylation observed for each peptide was experimentally measured, the amount of phosphorylation was quantified, the phosphorylation results for each peptide were normalized to the phosphorylation observed with the best substrate tested and these amounts were compared with predictions made according to the invention and according to the procedures provided by others. These peptides are referred to herein as proteomic peptides because their sequences are chosen from proteins in the human proteome; unlike the test sets employed herein, these peptides include no degenerate positions
Table 2 compares the present predictions with actual measurements of phosphorylation on validating peptides. The method of synthesis of the validating peptides was as described elsewhere in the application, and each included an N-terminal linker sequence of biotinylated-Lys-dansylated-Lys-Pro-Pro-Gly (SEQ ID NO:231). The length of the remaining “core” of the validating peptides ranged from 12-21 residues with one to five S/T residues. In vitro phosphorylation of these validating peptides was measured in the manner described herein. […] In vitro phosphorylation results for the validating peptides were expressed as normalized values, namely as a percentage of phosphorylation of the best validating peptide substrate in the group.
The conditions of the kinase assay and the amount of active kinase used varied with the kinase and with the accuracy needed. For a typical experiment, 5-20 ng of kinase was used per well and each peptide pool was assayed in duplicate wells. Note that the absolute amount of kinase used was not usually a critical parameter, because the desired information related to specificity of the kinase not its absolute activity, and robustness of the assay depends on comparisons of the same amount of kinase on different peptides. The combination of kinase concentration and assay duration was modified to assure that the stoichiometry of peptide phosphorylation never exceeded 5%. The choice of kinase buffer depended on the kinase being analyzed. For studies of PKC, 100 mM HEPES, 0.05% Triton-X100, 1 mM CaCl2, 20 mM MgCl2, 0.2 mg/ml phosphatidyl serine (Avanti Polar Lipids), PMA 100 ng/ml was typically used. The lipid stock was prepared by transferring 3 mg phosphatidyl serine into iced mixture of 450 μl water plus 50 μl of 10% Triton-X100, sonicating 10 times on ice for 1 sec each.
The kinase reaction mixture was assembled by sequential addition to a tube held on ice of: 5 μl peptide (100 μM for final concentration of 10 μM), 15 μl of kinase (typically 5 ng/well, in appropriate kinase buffer), 30 μl of ATP (1 uCi/well of ^32P-gamma ATP in a stock of 167 μM cold ATP in the kinase buffer; for final concentration for 100 μM ATP). The mixture was rapidly warmed to desired reaction temperature (30° C. for PKC) and incubated for the desired duration (usually 10 minutes). The kinase assay was terminated by transfer to 4° C. water batch, and rapid addition of an equal volume (50 μl) of stop solution [0.1M ATP+0.1M EDTA in water, pH 8].
The peptides were then captured from the reaction mixture by transfer to a Reacti-Bind Streptavidin High Binding Capacity Coated Plates (HBC) (Pierce Biotechnology) as follows. The HBC plates were pre-rinsed three times with PBS/Tween PBS/Tween20 0.05% (PBS/Tween). […]
In the case of 4 (KFARKSTRRSIRLPE) [compound 4], the “phosphorylation in the in vitro validating assay” value is listed as “highly phosphorylated”.

On to 7 (RKIPKRPGSVHRTPSRQ) [compound 7], for which the “phosphorylation in the in vitro validating assay” value is on record as “highly phosphorylated”. As for 9 (QKKSRLRRRASQLKI) [compound 9], the “phosphorylation in the in vitro validating assay” value is listed as “highly phosphorylated”.

On to 11 (KKKFRTPSFLKKSKK) [compound 11], for which the “phosphorylation in the in vitro validating assay” value is “highly phosphorylated”.

In the case of 60 (LRRKHLGTLNFGGIR) [compound 60], the “phosphorylation in the in vitro validating assay” value is given as “poorly phosphorylated”. On to 64 (ALRAPKPTLRYFTTERF) [compound 64], for which the “phosphorylation in the in vitro validating assay” value was “poorly phosphorylated”.

The test is the same for the next values; noted with them: peptide concentration of 10 nM; percentage of phosphorylation of the best validating peptide substrate.
Turning to 1 (HVRRRRGTFKRSKLRARD) [compound 1], the “Measured in vitro phosphorylation by PKC-delta” value (shortened to “Measured … by PKC-delta”) was found to be 100%. For 2 (KKKKRASFKRKSSKKG) [compound 2], the “Measured … by PKC-delta” value was determined as 76%. With 3 (NRKKKRTSFKRKA) [compound 3], the “Measured … by PKC-delta” value is listed as 66%. Still for that read-out and setting: in the case of 4 (KFARKSTRRSIRLPE) [compound 4] it was 52%; in that of 5 (RQRKRKLSFRRRTDKD) [compound 5], 42%; in that of 6 (PRLIRRGSKKRPAR) [compound 6], 40%.

Regarding 7 (RKIPKRPGSVHRTPSRQ) [compound 7], the “Measured … by PKC-delta” value is 38%. The same measure, in the same setting: in the case of 8 (AARKKRISVKKKQEQ) [compound 8] it was 35%; in that of 9 (QKKSRLRRRASQLKI) [compound 9], 34%; in that of 10 (AQIVKRASLKRGKQ) [compound 10], 32%. The same measure, in the same setting: the value for 11 (KKKFRTPSFLKKSKK) [compound 11] was 25%; that for 12 (KKKKKRFSFKKSFKL) [compound 12] was 24%; that for 13 (WKGKRRSKARKKRK) [compound 13] was 22%. Still for that read-out and setting: the value for 14 (EYLERRASRRRAV) [compound 14] was 20%; that for 15 (RGFLRSASLGRRASFHLE) [compound 15] was 18%.

For 16 (DGQKRKKSLRKKLD) [compound 16], the “Measured … by PKC-delta” value was 17%. In the case of 17 (AGWRKKTSFRKPKED) [compound 17], the “Measured … by PKC-delta” value amounted to 17%. The same measure, in the same setting: in the case of 18 (KKRFSFKKSFKLSGFSFKKN) [compound 18] it was 16%; in that of 19 (AGSFKRNSIKKIV) [compound 19], 14%. As for 20 (GAPPRRSSIRNAH) [compound 20], the “Measured … by PKC-delta” value was determined as 13%.

In the case of 21 (KLAVGRHSFSRRSGV) [compound 21], the “Measured … by PKC-delta” value is given as 12%. Still for that read-out and setting: in the case of 22 (LLKKRDSFRTPRDSKLE) [compound 22] it was 12%; in that of 23 (QKRHARVTVKYDRRE) [compound 23], 10%; in that of 24 (EKIKRSSLKKVDSLKK) [compound 24], 10%.

25 (EILSRRPSYRKILND) [compound 25]: the “Measured … by PKC-delta” value came to 9%. Still for that read-out and setting: in the case of 26 (ALRRPSLRREADD) [compound 26] it was 9%; in that of 27 (KKRKKKSSKSLAHA) [compound 27], 8%. With 28 (KRPGKKGSNKRPGKR) [compound 28], the “Measured … by PKC-delta” value is reported as 8%. With 29 (RKNDRKKRYTVVGNP) [compound 29], the “Measured … by PKC-delta” value is recorded as 8%. Regarding 30 (KEVVRTDSLKGRRGR) [compound 30], the “Measured … by PKC-delta” value is on record as 7%.

Take 31 (RKKRKKKSSKSLAHAGVALA) [compound 31]: the “Measured … by PKC-delta” value is reported as greater than 5%. Still for that read-out and setting: the value for 32 (KATTKKRTLRKNDRK) [compound 32] was greater than 5%; that for 34 (EGGDRRASGRRK) [compound 34] was 5%; that for 35 (GLLDRKGSWKKLDDM) [compound 35] was 4%.

Consider 36 (GENVLKKSMKSRVKG) [compound 36], for which the “Measured … by PKC-delta” value is on record as 4%. The same measure, in the same setting: the value for 37 (AYIERMNSIHRDLRA) [compound 37] was 3%.

In the case of 38 (NYLRRRLSDSNFMAN) [compound 38], the “Measured … by PKC-delta” value amounted to 3%.

Consider 39 (LLGSGKVTDRKAL) [compound 39], for which the “Measured … by PKC-delta” value is 3%. Still for that read-out and setting: the value for 40 (NMEAKKLSKDRMKKY) [compound 40] was 3%; that for 41 (FVHQASFKFGQGD) [compound 41] was 3%; that for 42 (QPEGLRSLKKPDRKKR) [compound 42] was 3%. Still for that read-out and setting: the value for 43 (AWVTVHEKKSSRKSEYL) [compound 43] was 3%.

Consider 44 (VLAKKGTSKTPVPE) [compound 44], for which the “Measured … by PKC-delta” value was found to be 2%. For the substance 45 (VFREHQRSGSYHVRE) [compound 45], the “Measured … by PKC-delta” value stood at 2%. Consider 46 (GQAWGRQSPRRLED) [compound 46], for which the “Measured … by PKC-delta” value is on record as 2%.

As to 47 (ARIIGEKSFRRSVVG) [compound 47], the “Measured … by PKC-delta” value was 2%. As to 48 (AVNSRRRAGQKKK) [compound 48], the “Measured … by PKC-delta” value was 2%.

As for 49 (VQQLLRSSNRRLEQL) [compound 49], the “Measured … by PKC-delta” value is on record as 2%. The same measure, in the same setting: the value for 50 (ENLRRVATDRRHLGH) [compound 50] was 2%; that for 51 (DLLGKKVSTKTLSEDD) [compound 51] was 2%. Still for that read-out and setting: in the case of 52 (HKHSPEKRGSERKEG) [compound 52] it was 2%. For 53 (AKNLKTLQKRDSFIG) [compound 53], the “Measured … by PKC-delta” value is 2%. On the same count and under the same terms, in the case of 54 (ENLRKVTTDKKSLAY) [compound 54] it was 2%; in that of 55 (DDMEHKTLKITDFG) [compound 55], 2%; in that of 56 (EARLGAASLKFGARD) [compound 56], 2%. On the same count and under the same terms, the value for 57 (KNVVKLLSSRRTQDR) [compound 57] was 2%; that for 58 (RVKLGTLRRPEGP) [compound 58] was 1%. Same read-out and setting: the value for 59 (PVNKRSKYTMMK) [compound 59] was 1%; that for 60 (LRRKHLGTLNFGGIR) [compound 60] was 1%. For 61 (VDNILKKSNKKLEEL) [compound 61], the “Measured … by PKC-delta” value amounted to 1%. With 62 (AVRDMRQTVAVGVIK) [compound 62], the “Measured … by PKC-delta” value was found to be 1%.

As to 63 (QRQERIFSKRRGQDF) [compound 63], the “Measured … by PKC-delta” value is 1%. The same measure, in the same setting: in the case of 64 (ALRAPKPTLRYFTTERF) [compound 64] it was 1%.

In the case of 65 (IKVTHKATGKVMVMK) [compound 65], the “Measured … by PKC-delta” value was found to be 1%.
